From the supplement of paper PMC10065799, “High-throughput profiling of sequence recognition by tyrosine kinases and SH2 domains using bacterial peptide display” (eLife, 2023)

Tests used:
Fes = Fes (UniProt P07332); experiment: phosphorylation enrichment, bacterial display (enrichment ratio); higher = better substrate or ligand; peptides without Tyr show the background
MERTK = MERTK (UniProt Q12866); experiment: as above
Hck = Hck (UniProt P08631); experiment: as above
Fyn = Fyn (UniProt P06241); experiment: as above
Jak2 = Jak2 (UniProt O60674); experiment: as above
FGFR1 = FGFR1 (UniProt P11362); experiment: as above
FGFR3 = FGFR3 (UniProt P22607); experiment: as above
EPHB1 = EPHB1 (UniProt P54762); experiment: as above
c-Abl (mouse) = experiment: as above
Fer (mouse) = experiment: as above
AncSZ = experiment: as above
EPHB2 = EPHB2 (UniProt P29323); experiment: as above
c-Src = experiment: as above
Grb2 SH2 = Grb2 SH2 (UniProt P62993); experiment: SH2 binding enrichment of the phosphorylated peptide, bacterial display (enrichment ratio); higher = better substrate or ligand; peptides without Tyr show the background
SHP2-C SH2 = experiment: as above
c-Src SH2 = experiment: as above
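Throughout, for SH2 binding enrichment of the phosphorylated peptide, bacterial display: peptide library displayed on the E. coli surface as eCPX fusions, selected cells deep-sequenced, score is each peptide's frequency after selection divided by its frequency in the input.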
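Throughout, for phosphorylation enrichment, bacterial display: 11-residue human phosphosite peptides and single-mutation variants displayed on the E. coli surface, counted by deep sequencing, each peptide's frequency after selection divided by its frequency in the unselected input library; frequency after pTyr selection over input frequency; kinase dosed for 20-30% of maximal phosphorylation in three min.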

FGFR3, sequence (P22607 whole entry, looked up): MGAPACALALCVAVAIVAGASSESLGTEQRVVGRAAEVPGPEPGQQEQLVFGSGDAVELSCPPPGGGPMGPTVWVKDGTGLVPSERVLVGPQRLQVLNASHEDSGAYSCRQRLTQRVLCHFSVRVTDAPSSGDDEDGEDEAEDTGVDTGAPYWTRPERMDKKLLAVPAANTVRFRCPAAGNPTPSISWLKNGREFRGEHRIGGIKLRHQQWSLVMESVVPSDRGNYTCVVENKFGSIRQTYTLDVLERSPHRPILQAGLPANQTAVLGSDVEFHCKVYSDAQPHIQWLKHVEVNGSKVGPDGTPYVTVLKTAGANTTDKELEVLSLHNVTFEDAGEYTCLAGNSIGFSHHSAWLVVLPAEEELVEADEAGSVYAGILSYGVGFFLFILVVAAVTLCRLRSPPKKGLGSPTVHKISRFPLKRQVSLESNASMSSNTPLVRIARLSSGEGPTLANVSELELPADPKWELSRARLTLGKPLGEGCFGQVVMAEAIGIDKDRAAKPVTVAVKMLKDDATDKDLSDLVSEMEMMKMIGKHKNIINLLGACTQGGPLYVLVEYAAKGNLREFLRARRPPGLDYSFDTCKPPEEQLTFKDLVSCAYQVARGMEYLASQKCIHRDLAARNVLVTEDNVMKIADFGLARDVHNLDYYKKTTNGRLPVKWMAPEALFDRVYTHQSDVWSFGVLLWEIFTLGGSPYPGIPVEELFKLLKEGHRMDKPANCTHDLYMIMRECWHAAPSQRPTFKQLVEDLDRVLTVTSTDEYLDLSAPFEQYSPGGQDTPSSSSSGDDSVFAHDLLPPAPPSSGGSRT
Fyn, sequence (P06241 whole entry, looked up): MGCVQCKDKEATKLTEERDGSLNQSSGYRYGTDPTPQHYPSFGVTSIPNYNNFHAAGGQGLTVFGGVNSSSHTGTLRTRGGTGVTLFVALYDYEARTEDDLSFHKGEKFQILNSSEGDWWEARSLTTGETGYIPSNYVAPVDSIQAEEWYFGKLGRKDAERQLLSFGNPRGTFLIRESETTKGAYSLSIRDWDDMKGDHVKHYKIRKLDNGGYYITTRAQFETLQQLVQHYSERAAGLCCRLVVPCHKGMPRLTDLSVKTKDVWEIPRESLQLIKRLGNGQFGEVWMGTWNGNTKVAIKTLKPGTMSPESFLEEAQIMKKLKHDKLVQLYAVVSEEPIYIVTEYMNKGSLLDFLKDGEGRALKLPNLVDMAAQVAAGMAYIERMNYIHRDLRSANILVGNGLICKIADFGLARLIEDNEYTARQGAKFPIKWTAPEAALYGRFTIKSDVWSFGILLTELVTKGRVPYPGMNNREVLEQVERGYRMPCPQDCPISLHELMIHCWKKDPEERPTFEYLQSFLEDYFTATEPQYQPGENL
Hck, sequence (P08631 whole entry, looked up): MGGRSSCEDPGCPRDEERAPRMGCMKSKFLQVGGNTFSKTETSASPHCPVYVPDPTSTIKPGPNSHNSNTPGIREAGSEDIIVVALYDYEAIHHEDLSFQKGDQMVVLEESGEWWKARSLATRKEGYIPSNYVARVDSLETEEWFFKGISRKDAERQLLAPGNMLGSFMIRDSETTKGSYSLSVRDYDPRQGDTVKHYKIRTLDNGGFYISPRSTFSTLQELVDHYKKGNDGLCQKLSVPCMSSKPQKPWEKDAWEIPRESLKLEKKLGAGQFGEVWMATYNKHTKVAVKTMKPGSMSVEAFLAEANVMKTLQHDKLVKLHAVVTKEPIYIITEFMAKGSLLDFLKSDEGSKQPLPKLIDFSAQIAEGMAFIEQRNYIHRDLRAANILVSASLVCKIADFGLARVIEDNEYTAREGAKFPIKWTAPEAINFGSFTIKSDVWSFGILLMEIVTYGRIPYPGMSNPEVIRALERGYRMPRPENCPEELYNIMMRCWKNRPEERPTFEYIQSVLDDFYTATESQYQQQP
MERTK, sequence (Q12866 whole entry, looked up): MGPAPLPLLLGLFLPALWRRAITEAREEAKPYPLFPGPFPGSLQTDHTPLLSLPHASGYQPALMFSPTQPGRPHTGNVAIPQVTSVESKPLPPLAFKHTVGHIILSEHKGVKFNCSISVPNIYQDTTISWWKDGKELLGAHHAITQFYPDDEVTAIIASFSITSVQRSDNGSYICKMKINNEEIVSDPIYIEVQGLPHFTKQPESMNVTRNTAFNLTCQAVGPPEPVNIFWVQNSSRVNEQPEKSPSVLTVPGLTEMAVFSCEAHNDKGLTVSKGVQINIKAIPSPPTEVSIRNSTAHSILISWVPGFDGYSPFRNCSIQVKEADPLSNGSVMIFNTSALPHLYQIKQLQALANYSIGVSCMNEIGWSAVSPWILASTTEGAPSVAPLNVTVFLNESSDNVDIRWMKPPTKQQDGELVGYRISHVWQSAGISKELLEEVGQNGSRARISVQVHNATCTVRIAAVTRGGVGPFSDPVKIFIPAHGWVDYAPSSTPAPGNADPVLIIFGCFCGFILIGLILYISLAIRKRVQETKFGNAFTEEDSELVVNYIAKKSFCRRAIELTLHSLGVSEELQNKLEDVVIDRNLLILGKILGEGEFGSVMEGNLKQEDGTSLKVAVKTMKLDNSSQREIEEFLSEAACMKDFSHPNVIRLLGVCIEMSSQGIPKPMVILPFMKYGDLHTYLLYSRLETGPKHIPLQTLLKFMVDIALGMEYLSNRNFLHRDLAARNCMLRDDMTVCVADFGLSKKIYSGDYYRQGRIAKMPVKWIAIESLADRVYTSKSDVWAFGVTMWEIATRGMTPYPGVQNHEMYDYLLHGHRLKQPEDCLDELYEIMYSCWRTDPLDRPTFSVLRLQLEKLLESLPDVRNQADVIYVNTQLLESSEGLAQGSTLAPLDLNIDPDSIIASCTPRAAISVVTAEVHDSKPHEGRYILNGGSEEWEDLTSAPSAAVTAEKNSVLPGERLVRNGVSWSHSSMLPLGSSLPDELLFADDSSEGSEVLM
FGFR1, sequence (P11362 whole entry, looked up): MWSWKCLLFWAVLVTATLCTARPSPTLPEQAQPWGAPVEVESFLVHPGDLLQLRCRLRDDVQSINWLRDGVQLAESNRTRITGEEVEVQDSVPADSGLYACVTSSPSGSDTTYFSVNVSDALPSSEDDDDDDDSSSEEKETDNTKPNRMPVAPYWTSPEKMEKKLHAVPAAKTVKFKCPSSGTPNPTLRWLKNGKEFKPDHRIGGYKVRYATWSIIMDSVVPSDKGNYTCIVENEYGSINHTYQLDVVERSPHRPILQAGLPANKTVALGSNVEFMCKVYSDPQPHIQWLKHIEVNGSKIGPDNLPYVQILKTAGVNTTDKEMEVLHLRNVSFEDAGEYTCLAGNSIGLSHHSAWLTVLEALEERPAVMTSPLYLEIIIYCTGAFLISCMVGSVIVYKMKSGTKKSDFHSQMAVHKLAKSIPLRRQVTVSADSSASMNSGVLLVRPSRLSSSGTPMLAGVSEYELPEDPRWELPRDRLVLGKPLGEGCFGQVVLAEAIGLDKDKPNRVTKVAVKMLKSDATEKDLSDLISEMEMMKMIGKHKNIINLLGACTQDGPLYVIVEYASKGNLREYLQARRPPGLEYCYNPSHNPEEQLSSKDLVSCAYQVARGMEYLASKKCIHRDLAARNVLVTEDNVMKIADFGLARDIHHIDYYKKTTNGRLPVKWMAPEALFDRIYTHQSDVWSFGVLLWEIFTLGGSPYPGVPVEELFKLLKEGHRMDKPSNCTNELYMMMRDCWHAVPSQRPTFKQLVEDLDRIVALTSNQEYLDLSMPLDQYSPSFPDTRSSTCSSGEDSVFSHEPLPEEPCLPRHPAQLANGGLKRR
Jak2, sequence (O60674 whole entry, looked up): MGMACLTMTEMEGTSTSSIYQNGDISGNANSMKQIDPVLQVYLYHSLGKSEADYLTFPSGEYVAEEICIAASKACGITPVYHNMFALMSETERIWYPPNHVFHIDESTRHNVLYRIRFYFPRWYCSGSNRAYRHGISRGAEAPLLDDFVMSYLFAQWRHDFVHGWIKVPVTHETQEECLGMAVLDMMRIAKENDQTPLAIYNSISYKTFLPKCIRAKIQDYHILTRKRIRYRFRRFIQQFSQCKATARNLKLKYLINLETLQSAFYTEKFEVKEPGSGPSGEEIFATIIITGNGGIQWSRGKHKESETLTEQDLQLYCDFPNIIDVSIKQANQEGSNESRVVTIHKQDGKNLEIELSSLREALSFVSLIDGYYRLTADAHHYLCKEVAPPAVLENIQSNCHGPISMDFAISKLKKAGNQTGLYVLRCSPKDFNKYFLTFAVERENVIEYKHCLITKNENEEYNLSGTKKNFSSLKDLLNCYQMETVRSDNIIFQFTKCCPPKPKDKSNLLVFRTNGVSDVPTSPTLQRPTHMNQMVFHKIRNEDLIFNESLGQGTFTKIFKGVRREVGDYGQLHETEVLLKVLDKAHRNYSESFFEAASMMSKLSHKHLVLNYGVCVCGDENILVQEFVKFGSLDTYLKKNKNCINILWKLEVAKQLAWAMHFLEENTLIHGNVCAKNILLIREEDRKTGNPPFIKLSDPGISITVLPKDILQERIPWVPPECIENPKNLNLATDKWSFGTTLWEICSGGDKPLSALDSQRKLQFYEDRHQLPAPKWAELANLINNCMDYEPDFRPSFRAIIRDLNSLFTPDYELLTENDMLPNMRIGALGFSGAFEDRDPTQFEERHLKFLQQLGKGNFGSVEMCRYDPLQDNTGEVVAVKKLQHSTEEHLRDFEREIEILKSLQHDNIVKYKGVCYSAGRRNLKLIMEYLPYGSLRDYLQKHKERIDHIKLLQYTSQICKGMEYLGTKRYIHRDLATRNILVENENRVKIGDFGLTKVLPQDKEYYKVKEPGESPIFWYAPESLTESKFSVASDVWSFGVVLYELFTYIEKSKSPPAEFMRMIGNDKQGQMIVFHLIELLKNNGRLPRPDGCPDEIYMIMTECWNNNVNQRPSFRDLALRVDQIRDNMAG

SH2 binding enrichment (Grb2 SH2) | SH2 binding enrichment (SHP2-C SH2) | SH2 binding enrichment (c-Src SH2) | Sequence | phosphorylation enrichment (Fes) | phosphorylation enrichment (MERTK) | phosphorylation enrichment (Hck) | phosphorylation enrichment (Fyn) | phosphorylation enrichment (Jak2) | phosphorylation enrichment (FGFR1) | phosphorylation enrichment (FGFR3) | phosphorylation enrichment (EPHB1) | phosphorylation enrichment (c-Abl (mouse)) | phosphorylation enrichment (Fer (mouse)) | phosphorylation enrichment (AncSZ) | phosphorylation enrichment (EPHB2) | phosphorylation enrichment (c-Src)
0.958 | 0.538 | 0.704 | LPEHPYHSRPR [NDUFA8_Y142_N140H] | 3.08 | 1.17 | 1.9 | 2.04 | 0.823 | 1.02 | 2.71 | 0.861 | 0.828 | 1.03 | 1.97 | 1.57 | 1.27
1.03 | 0.637 | 0.561 | LPENPYHSRPR [NDUFA8_Y142] | 0.632 | 0.415 | 0.916 | 0.72 | 0.552 | 0.442 | 0.408 | 0.3 | 0.761 | 0.384 | 0.643 | 0.41 | 1.8
0.735 | 0.834 | 1.08 | LPIQTYSALNF [DES_Y423] | 1.24 | 15.9 | 18.9 | 13.8 | 1.27 | 2.1 | 2.07 | 14.3 | 1.59 | 11.1 | 1.01 | 11.7 | 8
1.02 | 0.795 | 0.406 | LPKDLYLISQM [LARP4_Y141_S137P] | 2.13 | 0.785 | 0.891 | 0.69 | 1.46 | 1.15 | 1.55 | 0.784 | 1.2 | 0.646 | 2.15 | 0.757 | 0.788
0.911 | 1.06 | 0.762 | LPKEQYLFTKE [AFG3L2_Y614_YF] | 1.49 | 0.499 | 0.996 | 1.59 | 0.532 | 0.623 | 1.51 | 1.2 | 0.551 | 0.817 | 0.83 | 0.471 | 0.406
0.766 | 0.717 | 2.68 | LPSKDYAEVGR [HP_Y272] | 2.22 | 0.801 | 0.951 | 0.735 | 0.684 | 0.918 | 0.895 | 1.15 | 0.726 | 0.801 | 0.654 | 1.24 | 0.709
1.2 | 1.01 | 1.48 | LPVHFYGHVEH [PYGM_Y204] | 1.74 | 1.07 | 0.935 | 1.58 | 1.63 | 1.54 | 1.66 | 1.33 | 1.26 | 1.9 | 1.68 | 0.889 | 0.803
0.697 | 0.675 | 0.42 | LRGEDYGFSVD [PRKCI_Y430] | 1.35 | 0.623 | 0.58 | 0.518 | 1 | 0.587 | 0.835 | 0.686 | 1.12 | 0.636 | 1.1 | 0.668 | 0.512
1.05 | 0.82 | 0.783 | LRSKQYLRNPP [SHC1_Y315_F312S] | 0.619 | 0.364 | 0.4 | 0.452 | 0.355 | 0.277 | 0.37 | 0.426 | 0.575 | 0.413 | 0.376 | 0.359 | 0.399
0.909 | 0.486 | 0.506 | LSPNMYNSKFW [TARSL2_Y457_L461F] | 1.6 | 1.11 | 1.25 | 0.911 | 1.58 | 1.24 | 0.924 | 1.41 | 1.1 | 0.808 | 1.24 | 1.1 | 1.35
1.09 | 0.763 | 0.51 | LSPNMYNSKLW [TARSL2_Y457] | 1.19 | 0.603 | 0.831 | 0.622 | 0.561 | 0.75 | 1.13 | 0.632 | 0.726 | 0.5 | 0.879 | 0.753 | 0.573
0.665 | 0.452 | 0.451 | LSSEMCVKSYT [F5_Y2149_Y2149C] | 1.76 | 1.1 | 0.877 | 1.2 | 2.4 | 1.23 | 1.04 | 1.54 | 1.59 | 1.46 | 1.55 | 0.888 | 1.16
0.798 | 0.74 | 0.587 | LSSETYVKSFT [F5_Y2149_M2148T_YF] | 1.14 | 0.379 | 0.858 | 0.665 | 1.06 | 0.743 | 0.735 | 0.789 | 0.595 | 0.511 | 0.969 | 1.7 | 0.512
1.08 | 0.874 | 8.7 | LTKQEYDEAGP [ACTA1_Y364_I359L] | 1.71 | 0.817 | 1.15 | 0.809 | 1.62 | 0.811 | 1.07 | 0.696 | 1.39 | 0.638 | 2.03 | 1.23 | 0.996
1.03 | 0.801 | 0.679 | LTSVKYLLSAT [GSDMC_Y26_P23S] | 0.635 | 0.376 | 0.466 | 0.418 | 0.818 | 0.482 | 0.541 | 0.465 | 0.437 | 0.406 | 0.703 | 0.566 | 0.393
0.953 | 0.681 | 0.49 | LVRAFYCERRW [CARD11_Y970_R975W] | 0.745 | 0.64 | 0.634 | 0.649 | 0.857 | 0.575 | 0.697 | 0.671 | 0.695 | 0.59 | 1.05 | 0.623 | 0.489
0.836 | 0.633 | 0.444 | LVTRSYLLGNS [LMNA_Y646] | 1.52 | 0.794 | 0.708 | 0.823 | 1.27 | 0.841 | 0.939 | 0.931 | 1.14 | 0.85 | 1.37 | 0.68 | 0.854

SH2 binding enrichment (Grb2 SH2) | SH2 binding enrichment (SHP2-C SH2) | SH2 binding enrichment (c-Src SH2) | Sequence | phosphorylation enrichment (Fes) | phosphorylation enrichment (MERTK) | phosphorylation enrichment (Hck) | phosphorylation enrichment (Fyn) | phosphorylation enrichment (Jak2) | phosphorylation enrichment (FGFR1) | phosphorylation enrichment (FGFR3) | phosphorylation enrichment (EPHB1) | phosphorylation enrichment (c-Abl (mouse)) | phosphorylation enrichment (Fer (mouse)) | phosphorylation enrichment (AncSZ) | phosphorylation enrichment (EPHB2) | phosphorylation enrichment (c-Src)
0.933 | 0.314 | 0.962 | LYEDCYLLGTS [ASS1_Y87_R86C] | 2.12 | 3.13 | 1.9 | 4.12 | 1.78 | 1.26 | 1.28 | 7.04 | 1.08 | 13.4 | 2.29 | 3.42 | 4.68
0.887 | 0.787 | 0.485 | MANYMYKAGPS [MAML2_Y515] | 0.616 | 0.584 | 0.51 | 0.508 | 0.497 | 0.465 | 0.496 | 1.32 | 1.04 | 0.358 | 0.636 | 0.963 | 0.556
1.06 | 0.716 | 0.454 | MARDISRASFF [ALK_Y1278_Y1278S_YF] | 0.682 | 0.432 | 0.384 | 0.443 | 0.53 | 0.41 | 0.473 | 0.463 | 0.545 | 0.392 | 0.626 | 0.467 | 0.396
0.99 | 0.727 | 1.66 | MASTSYDFCRV [BST2_Y6_YF] | 0.919 | 0.709 | 0.473 | 0.486 | 0.796 | 0.572 | 0.829 | 0.576 | 0.622 | 2.25 | 0.944 | 0.613 | 0.525
0.852 | 0.956 | 2.79 | MAYDRYAAICS [OR8H2_Y123_H120Y] | 1.35 | 0.835 | 0.76 | 0.526 | 1.04 | 0.526 | 0.687 | 0.699 | 0.839 | 0.597 | 0.94 | 0.828 | 0.661
1.07 | 0.784 | 0.705 | MCITRYERESQ [PRNP_Y218_Q217R] | 0.813 | 0.457 | 0.469 | 0.404 | 0.769 | 0.433 | 0.541 | 0.429 | 0.466 | 0.488 | 1.03 | 0.528 | 0.404
0.685 | 0.69 | 0.617 | MDNQEYKDAFT [BRDT_Y331_K336T_YF] | 1.3 | 0.402 | 0.488 | 0.486 | 1.15 | 0.539 | 0.802 | 0.56 | 0.737 | 0.539 | 1.14 | 0.913 | 0.458
0.743 | 0.762 | 8.92 | MEIHAYHKLLE [LMNA_Y376_R377H] | 1.25 | 0.403 | 0.552 | 0.445 | 1.03 | 0.474 | 0.746 | 0.475 | 0.691 | 0.422 | 0.974 | 0.588 | 0.441
0.845 | 1.03 | 0.778 | MFFSTYDRDND [FGB_Y408] | 1.05 | 0.408 | 0.511 | 0.426 | 1.03 | 0.673 | 0.601 | 0.541 | 0.84 | 0.501 | 0.849 | 0.578 | 0.589
0.89 | 0.868 | 0.572 | MFRVQYNSSVD [LRFN1_Y458_Q455R_YF] | 0.931 | 0.349 | 0.406 | 0.424 | 0.908 | 0.439 | 0.597 | 0.49 | 0.552 | 0.415 | 0.769 | 0.477 | 0.386
1.44 | 0.606 | 0.569 | MGCVNYGAYIN [GLB1_Y485_R482C] | 1.37 | 0.483 | 0.572 | 0.578 | 1.56 | 0.469 | 0.851 | 0.793 | 1.39 | 0.571 | 1.32 | 0.83 | 1.08
0.682 | 0.845 | 0.477 | MGSYNYLGFAW [SPTLC2_Y178_R183W] | 0.937 | 3.65 | 1.4 | 0.708 | 3.68 | 2.96 | 2.24 | 3.69 | 0.737 | 0.617 | 1.11 | 1.88 | 1.04
1.34 | 0.78 | 0.799 | MHYSNYVSKGS [PDGFRA_Y849_D846Y] | 0.533 | 0.526 | 0.478 | 0.424 | 0.467 | 0.421 | 0.397 | 0.412 | 0.432 | 0.458 | 0.617 | 0.472 | 0.495
0.715 | 0.689 | 0.46 | MIRSAYALGGL [CPS1_Y590] | 0.534 | 0.449 | 0.386 | 0.41 | 0.597 | 0.392 | 0.473 | 0.358 | 0.417 | 0.32 | 0.54 | 0.435 | 0.384
0.797 | 0.525 | 0.405 | MKSIKYMDKEI [CCDC60_Y41] | 0.569 | 0.44 | 0.402 | 0.375 | 0.603 | 0.452 | 0.389 | 0.399 | 0.457 | 0.514 | 0.578 | 0.392 | 0.447
0.827 | 0.743 | 0.439 | MLEAPYVDRNS [F10_Y384_V382A] | 0.954 | 0.343 | 0.497 | 0.465 | 0.739 | 0.455 | 0.557 | 0.452 | 0.689 | 0.391 | 0.747 | 0.451 | 0.435
